# Publication PMC12810643
# Target: endogenously expressed Gαi (human (endogenous in HEK293)) (UniProt P63096)
# Test: linear dichroism
# Sequence of UniProt P63096 (P63096 whole entry): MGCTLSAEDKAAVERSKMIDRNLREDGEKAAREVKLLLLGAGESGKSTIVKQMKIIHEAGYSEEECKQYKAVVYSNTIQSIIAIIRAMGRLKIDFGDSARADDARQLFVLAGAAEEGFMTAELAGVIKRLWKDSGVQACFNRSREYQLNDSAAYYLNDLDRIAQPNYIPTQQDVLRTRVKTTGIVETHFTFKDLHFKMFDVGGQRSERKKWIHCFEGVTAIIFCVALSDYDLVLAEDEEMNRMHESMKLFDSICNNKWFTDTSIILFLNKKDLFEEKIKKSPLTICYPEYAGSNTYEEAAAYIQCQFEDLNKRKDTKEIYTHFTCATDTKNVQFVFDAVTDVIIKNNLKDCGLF
substance,measurement,value
KB1753-cpmTurq2-HRas,percent of the FLIP molecules bound,15%
KB1753-eGFP-HRas,percent of the FLIP molecules bound,15%
